Tested on: primary cortical neurons
Assay: Synaptic marker expression (Synaptophysin, Gap-43) in primary cortical neurons, immunostaining and qRT-PCR
Type: cell-based, mouse
Conditions: P4-ACM from 10 nM P4-treated astrocytes, 18 hrs, BDNF 50 ng/ml, FIGS. 1A-1B
Excerpt: FIG. 1A represents immune-staining of Gap43 (green) and Synaptophysin (red). FIG. 1B represents qRT-PCR analysis of Gap43 (left) and Synaptophysin (right) mRNA levels. Data are presented as a percentage of control (non-treated group) (*: p≤0.05, **:p≤0.01).
The use of animals for the purpose of generating primary cultures was approved by the Institutional Animal Care and Use Committee at the University of North Texas Health Science Center. All mice will be handled according to the Guide for the Care and Use of Laboratory Animals. Primary cultures of cortex and hippocampal neurons will be prepared from neonatal murine pups (C57BL/6 mice, Jackson Laboratory) as described by Sarkar et al. with modifications. Briefly, cortical tissues isolated from newborn mice (postnatal days 2-4, mixed gender) will be then dissociated with trypsin and DNase I for 10 min at 37° C., and wash twice with Neurobasal-A medium containing B-27 and further dissociated by gentle titration using a graded series of fine polished Pasteur pipettes. After centrifugation at 200×g for 3 min at 4° C., dissociated cells will be resuspended in Neurobasal-AB-27 medium, passed through a cell strainer with 70 μm mesh, and plated at 1.0×10^5 cells/cm2 on culture dishes precoated with poly-D-lysine. The culture dishes were kept at 37° C. in humidified 95% air and 5% CO2. For primary neuron-enriched culture, the initial culture medium was replaced after 5 h; subsequently, half of the medium was changed every 3 days. At day in vitro (DIV) 3, 1-β-arabinofuranosylcytosine (AraC) was added to a final concentration of 5 μM to prevent glial proliferation. Treatments of the primary neuronal cultures started at DIV 14. For glial-enriched cultures, confluent mixed glial cultures were placed on the shaker for 48 hrs to dislodge microglia, resulting in cultures enriched with astrocyte population.
Although the underlying mechanism remains unclear, one potential mediator for P4-induced synaptogenesis is BDNF [33].

[1] = listed as purified recombinant BDNF

B1: BDNF: purified recombinant brain-derived neurotrophic factor, 50 ng/ml, positive control (protein, UniProt P23560 19-247, looked up)
Neurotrophic factor BDNF …: APMKEANIRGQGGLAYPGVRTHGTLESVNGPKAGSRGLTSLADTFEHVIEELLDEDQKVRPNEENNKDADLYTSRVMLSSQVPLEPPLLFLLEEYKNYLDAANMSMRVRRHSDPARRGELSVCDSISEWVTAADKKTAVDMSGGTVTVLEKVPVSKGQLKQYFYETKCNPMGYTKEGCRGIDKRHWNSQCRTTQSYVRALTMDSKKRIGWRFIRIDTSCVCTLTIKRGR
- expression of Gap-43: increased expression
- expression of Synaptophysin: increased expression
- expression of Gap-43 [1]: increased the expression
- expression of Synaptophysin [1]: increased the expression

From patent publication US11230711B2, “Inhibition of LET7I as a means to enhance the protective effect of progesterone against stroke” (UNIVERSITY OF NORTH TEXAS HEALTH SCIENCE CENTER, priority 2017, dated 2022)
